According to US20180334496A1:

Biological target: recombinant human CFD mutant 1 (R157A, R207A), His-tagged (human) (UniProt P00746)
Assay: ELISA

Chain of recombinant human CFD mutant 1 (R157A, R207A), His-tagged (human) (P00746 26-253 R182A/R232A limits assumed): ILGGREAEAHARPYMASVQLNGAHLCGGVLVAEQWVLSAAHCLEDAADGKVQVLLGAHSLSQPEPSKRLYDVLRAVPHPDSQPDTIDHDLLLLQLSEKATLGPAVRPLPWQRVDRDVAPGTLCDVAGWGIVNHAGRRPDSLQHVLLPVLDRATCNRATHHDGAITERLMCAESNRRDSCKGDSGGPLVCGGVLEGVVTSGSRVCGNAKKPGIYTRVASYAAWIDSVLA

B1: KCD119 (antibody, V domains shown)
VH: EVQLQQSGPELVKPGASVKISCKASGYTFTDYYTNWMRQRHGESLEWIGDINPNTGDTSYNQKFRVKATLTVDKSSGTAYMGLRSLTSEDSAVYYCTREGPSFAYWGQGTLVTVSA
VL: DVLMTQTPLSLPVSLGDQASISCRSSQTIVHSNGDTYLEWYLQKPGQSPNLLIYKVSNRFSGVPDRFSGSGSGTDFTLKISRVEAEDLGVYYCFQGSHVPPTFGGGTTLEIK
A Mut1 Binding (% wt) of 13.6 % wt was found for B1 in this work.
